# According to PMC6035183, “ETS transcription factors induce a unique UV damage signature that drives recurrent mutagenesis in melanoma”:
# T1: ETS1 (ETS1ΔN280) (UniProt P27577 280-440)
# T1 sequence: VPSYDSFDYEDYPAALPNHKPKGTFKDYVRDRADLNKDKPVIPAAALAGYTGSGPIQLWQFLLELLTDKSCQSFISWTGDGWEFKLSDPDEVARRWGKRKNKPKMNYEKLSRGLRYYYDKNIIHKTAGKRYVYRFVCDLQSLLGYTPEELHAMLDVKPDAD
# B1: SDHD promoter fragment (dsDNA)
# DNA 1: CTCGACTTCCGGTTCACCCAGCATTTCCTCTTCCCTGTT
# DNA 2: AACAGGGAAGAGGAAATGCTGGGTGAACCGGAAGTCGAG
# modifications: 5'-biotin on S16
# B2: RPL13A promoter fragment (dsDNA)
# DNA 1: GTCCAATCCGGACATTCTTCCGGTTGGACC
# DNA 2: GGTCCAACCGGAAGAATGTCCGGATTGGAC
# modifications: 5'-biotin on S13
# Assays:
# ETS1 (ETS1ΔN280) [1] = target: T1, ETS1 (ETS1ΔN280); assay: EMSA; 4 pmol DNA, 0-32 pmol ETS1; multiple shifted bands; 25 mM Tris-Cl pH 7.9, 10% glycerol, 6 mM MgCl2, 0.5 mM EDTA, 60 mM KCl, 0.5 mM DTT, 200 ug/ml BSA; 40 ul, 40 min on ice; 8% native PAGE; settings: protein: recombinant; label: 5'-32P on S15 (TTCC strand); blunt
# ETS1 (ETS1ΔN280) [2] = target: T1, ETS1 (ETS1ΔN280); assay: EMSA; 4 pmol DNA, 0-32 pmol ETS1; two shifted bands at low ETS1; 25 mM Tris-Cl pH 7.9, 10% glycerol, 6 mM MgCl2, 0.5 mM EDTA, 60 mM KCl, 0.5 mM DTT, 200 ug/ml BSA; 40 ul, 40 min on ice; 8% native PAGE; settings: protein: recombinant; label: 5'-32P on S14 (TTCC strand); blunt
Binder,binding result (ETS1 (ETS1ΔN280) [1]),binding result (ETS1 (ETS1ΔN280) [2])
B1,binds,
B2,,binds
